Reference: IntAct's records for PubMed 31515488

B1: Plasma alpha-L-fucosidase (Homo sapiens), Q9BTY2 (parent)
chain: MRPQELPRLAFPLLLLLLLLLPPPPCPAHSATRFDPTWESLDARQLPAWFDQAKFGIFIHWGVFSVPSFGSEWFWWYWQKEKIPKYVEFMKDNYPPSFKYEDFGPLFTAKFFNANQWADIFQASGAKYIVLTSKHHEGFTLWGSEYSWNWNAIDEGPKRDIVKELEVAIRNRTDLRFGLYYSLFEWFHPLFLEDESSSFHKRQFPVSKTLPELYELVNNYQPEVLWSDGDGGAPDQYWNSTGFLAWLYNESPVRGTVVTNDRWGAGSICKHGGFYTCSDRYNPGHLLPHKWENCMTIDKLSWGYRREAGISDYLTIEELVKQLVETVSCGGNLLMNIGPTLDGTISVVFEERLRQMGSWLKVNGEAIYETHTWRSQNDTVTPDVWYTSKPKEKLVYAIFLKWPTSGQLFLGHPKAILGATEVKLLGHGQPLNWISLEQNGIMVELPQLTIHQMPCKWGWALALTNVI
B2: Enhancer of mRNA-decapping protein 3 (Homo sapiens), Q96F86 (parent)
chain: MATDWLGSIVSINCGDSLGVYQGRVSAVDQVSQTISLTRPFHNGVKCLVPEVTFRAGDITELKILEIPGPGDNQHFGDLHQTELGPSGAGCQVGINQNGTGKFVKKPASSSSAPQNIPKRTDVKSQDVAVSPQQQQCSKSYVDRHMESLSQSKSFRRRHNSWSSSSRHPNQATPKKSGLKNGQMKNKDDECFGDDIEEIPDTDFDFEGNLALFDKAAVFEEIDTYERRSGTRSRGIPNERPTRYRHDENILESEPIVYRRIIVPHNVSKEFCTDSGLVVPSISYELHKKLLSVAEKHGLTLERRLEMTGVCASQMALTLLGGPNRLNPKNVHQRPTVALLCGPHVKGAQGISCGRHLANHDVQVILFLPNFVKMLESITNELSLFSKTQGQQVSSLKDLPTSPVDLVINCLDCPENVFLRDQPWYKAAVAWANQNRAPVLSIDPPVHEVEQGIDAKWSLALGLPLPLGEHAGRIYLCDIGIPQQVFQEVGINYHSPFGCKFVIPLHSA
B3: Mitochondrial fission 1 protein (Homo sapiens), Q9Y3D6 (parent)
chain: MEAVLNELVSVEDLLKFEKKFQSEKAAGSVSKSTQFEYAWCLVRSKYNDDIRKGIVLLEELLPKGSKEEQRDYVFYLAVGNYRLKEYEKALKYVRGLLQTEPQNNQAKELERLIDKAMKKDGLVGMAIVGGMALGVAGLAGLIGLAVSKSKS
partner: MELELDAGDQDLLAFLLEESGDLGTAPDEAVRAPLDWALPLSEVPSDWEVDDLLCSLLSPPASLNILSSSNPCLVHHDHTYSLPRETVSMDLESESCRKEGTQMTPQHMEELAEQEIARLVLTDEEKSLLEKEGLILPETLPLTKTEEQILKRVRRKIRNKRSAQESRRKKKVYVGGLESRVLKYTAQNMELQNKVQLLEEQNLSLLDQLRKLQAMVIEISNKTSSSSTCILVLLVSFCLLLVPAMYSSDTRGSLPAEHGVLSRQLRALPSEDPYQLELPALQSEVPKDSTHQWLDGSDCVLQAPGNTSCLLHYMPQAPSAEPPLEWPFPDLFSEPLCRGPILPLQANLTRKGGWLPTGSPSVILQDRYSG
B4: Zinc finger and BTB domain-containing protein 9 (Homo sapiens), Q96C00 (parent)
chain: METPTPLPPVPASPTCNPAPRTIQIEFPQHSSSLLESLNRHRLEGKFCDVSLLVQGRELRAHKAVLAAASPYFHDKLLLGDAPRLTLPSVIEADAFEGLLQLIYSGRLRLPLDALPAHLLVASGLQMWQVVDQCSEILRELETSGGGISARGGNSYHALLSTTSSTGGWCIRSSPFQTPVQSSASTESPASTESPVGGEGSELGEVLQIQVEEEEEEEEDDDDEDQGSATLSQTPQPQRVSGVFPRPHGPHPLPMTATPRKLPEGESAPLELPAPPALPPKIFYIKQEPFEPKEEISGSGTQPGGAKEETKVFSGGDTEGNGELGFLLPSGPGPTSGGGGPSWKPVDLHGNEILSGGGGPGGAGQAVHGPVKLGGTPPADGKRFGCLCGKRFAVKPKRDRHIMLTFSLRPFGCGICNKRFKLKHHLTEHMKTHAGALHACPHCGRRFRVHACFLRHRDLCKGQGWATAHWTYK
partner: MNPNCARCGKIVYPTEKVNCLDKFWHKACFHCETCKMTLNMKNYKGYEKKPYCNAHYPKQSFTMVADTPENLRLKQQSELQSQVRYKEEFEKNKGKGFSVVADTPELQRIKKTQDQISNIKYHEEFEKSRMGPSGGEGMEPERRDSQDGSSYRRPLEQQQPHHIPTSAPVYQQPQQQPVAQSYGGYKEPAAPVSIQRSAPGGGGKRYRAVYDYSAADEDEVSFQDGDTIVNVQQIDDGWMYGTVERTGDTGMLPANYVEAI
B5: Cyclin-D1-binding protein 1 (Homo sapiens), O95273 (parent)
chain: MASATAPAAAVPTLASPLEQLRHLAEELRLLLPRVRVGEAQETTEEFNREMFWRRLNEAAVTVSREATTLTIVFSQLPLPSPQETQKFCEQVHAAIKAFIAVYYLLPKDQGITLRKLVRGATLDIVDGMAQLMEVLSVTPTQSPENNDLISYNSVWVACQQMPQIPRDNKAAALLMLTKNVDFVKDAHEEMEQAVEECDPYSGLLNDTEENNSDNHNHEDDVLGFPSNQDLYWSEDDQELIIPCLALVRASKACLKKIRMLVAENGKKDQVAQLDDIVDISDEISPSVDDLALSIYPPMCHLTVRINSAKLVSVLKKALEITKASHVTPQPEDSWIPLLINAIDHCMNRIKELTQSELEL
partner: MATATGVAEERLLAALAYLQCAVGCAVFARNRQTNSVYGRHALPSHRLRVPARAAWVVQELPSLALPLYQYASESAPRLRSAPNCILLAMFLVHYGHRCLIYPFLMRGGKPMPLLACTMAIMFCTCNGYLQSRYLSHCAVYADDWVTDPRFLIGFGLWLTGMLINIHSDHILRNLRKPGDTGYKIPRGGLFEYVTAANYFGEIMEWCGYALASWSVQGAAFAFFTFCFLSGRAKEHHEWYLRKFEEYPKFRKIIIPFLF

Variants of: B1
Settings: with meox2_human MEOX2, P50222
Chain of meox2_human MEOX2, P50222 (P50222 whole entry): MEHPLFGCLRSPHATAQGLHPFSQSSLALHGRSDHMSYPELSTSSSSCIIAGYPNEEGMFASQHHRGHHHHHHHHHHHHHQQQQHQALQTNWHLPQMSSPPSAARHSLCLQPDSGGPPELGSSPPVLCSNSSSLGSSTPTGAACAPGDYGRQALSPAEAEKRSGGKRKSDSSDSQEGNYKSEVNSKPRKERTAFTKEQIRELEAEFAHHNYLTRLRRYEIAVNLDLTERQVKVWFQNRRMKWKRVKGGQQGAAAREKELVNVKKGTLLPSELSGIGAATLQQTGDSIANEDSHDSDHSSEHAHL

Variant	effect of a mutation on the interaction
MRPQELPRLAFPLLLLLLLLLPPPPCPAHSATRFDPTWESLDARQLPAWFDQAKFGIFIHWGVFSVPSFGSEWFWWYWQKEKIPKYVEFMKDNYPPSFKYEDFGPLFTAKFFNANQWADIFQASGAKYIVLTSKHHEGFTLWGSEYSWNWNAIDEGPKRDIVKELEVAIRNRTDLRFGLYYSLFEWFHPLFLEDESSSFHKRQFPVSKTLPELYELVNNYQPEVLWSDGDGGEPDQYWNSTGFLAWLYNESPVRGTVVTNDRWGAGSICKHGGFYTCSDRYNPGHLLPHKWENCMTIDKLSWGYRREAGISDYLTIEELVKQLVETVSCGGNLLMNIGPTLDGTISVVFEERLRQMGSWLKVNGEAIYETHTWRSQNDTVTPDVWYTSKPKEKLVYAIFLKWPTSGQLFLGHPKAILGATEVKLLGHGQPLNWISLEQNGIMVELPQLTIHQMPCKWGWALALTNVI [A233E]	with no effect

Variants of: B2
Settings: with ddx6_human DDX6, P26196
Chain of ddx6_human DDX6, P26196 (P26196 whole entry): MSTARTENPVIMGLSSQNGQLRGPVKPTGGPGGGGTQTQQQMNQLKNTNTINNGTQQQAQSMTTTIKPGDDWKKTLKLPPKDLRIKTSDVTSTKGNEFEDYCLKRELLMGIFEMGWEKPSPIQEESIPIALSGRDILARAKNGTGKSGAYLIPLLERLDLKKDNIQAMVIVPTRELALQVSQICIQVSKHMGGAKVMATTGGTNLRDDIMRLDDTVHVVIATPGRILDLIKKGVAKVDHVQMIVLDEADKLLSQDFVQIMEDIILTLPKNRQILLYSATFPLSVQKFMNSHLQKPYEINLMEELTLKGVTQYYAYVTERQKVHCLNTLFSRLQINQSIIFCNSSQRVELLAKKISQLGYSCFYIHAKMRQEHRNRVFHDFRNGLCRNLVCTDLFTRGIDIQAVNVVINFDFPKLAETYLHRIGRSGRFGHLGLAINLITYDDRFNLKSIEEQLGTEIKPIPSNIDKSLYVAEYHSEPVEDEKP

Variant	effect of a mutation on the interaction
MATDWLGSIVSINCGDSLGVYQGRVSAVDQVSQTISLTRPFHNGVKCLVPEVTFRAGDITELKILEIPGPGDNQHFGDLHQTELGPSGAGCQVGINQNGTGKFVKKPASSSSAPQNIPKRTDVKSQDVAVSPQQQQCSKSYVDRHMESLSQSKSFRRRHNSWSSSSRHPNQATPKKSGLKNGQMKNKDDECFGDDIEEIPDTDFDFEGNLALFDKAAVFEEIDTYERRSGTGSRGIPNERPTRYRHDENILESEPIVYRRIIVPHNVSKEFCTDSGLVVPSISYELHKKLLSVAEKHGLTLERRLEMTGVCASQMALTLLGGPNRLNPKNVHQRPTVALLCGPHVKGAQGISCGRHLANHDVQVILFLPNFVKMLESITNELSLFSKTQGQQVSSLKDLPTSPVDLVINCLDCPENVFLRDQPWYKAAVAWANQNRAPVLSIDPPVHEVEQGIDAKWSLALGLPLPLGEHAGRIYLCDIGIPQQVFQEVGINYHSPFGCKFVIPLHSA [R232G]	with no effect

Variants of: B3
Settings: with creb3_human CREB3, O43889

Variant	effect of a mutation on the interaction
MEAVLNELVSVEDLLKFEKKFQSEKAAGSVSKSTQFEYAWCLVRSKYNDDIRKGIVLLEELLPKGSKEEQRDYVFYLAVGNYRLKEYEKALKYVRGLLQTEPQNNQAKELERLIDKAMKKDGLMGMAIVGGMALGVAGLAGLIGLAVSKSKS	with no effect

Variants of: B4
Settings: with lasp1_human LASP1, Q14847

Variant	effect of a mutation on the interaction
METPTPLPPVPASPTCNPAPRTIQIEFPQHSSSLLESLNRHRLEGKFCDVSLLVQGRELRAHKAVLAAASPYFHDKLLLGDAPRLTLPSVIEADAFEGLLQLIYSGRLRLPLDALPAHLLVASGLQMWQVVDQCSEILRELETSGGGISARGGNSYHALLSTTSSTGGWCIRCSPFQTPVQSSASTESPASTESPVGGEGSELGEVLQIQVEEEEEEEEDDDDEDQGSATLSQTPQPQRVSGVFPRPHGPHPLPMTATPRKLPEGESAPLELPAPPALPPKIFYIKQEPFEPKEEISGSGTQPGGAKEETKVFSGGDTEGNGELGFLLPSGPGPTSGGGGPSWKPVDLHGNEILSGGGGPGGAGQAVHGPVKLGGTPPADGKRFGCLCGKRFAVKPKRDRHIMLTFSLRPFGCGICNKRFKLKHHLTEHMKTHAGALHACPHCGRRFRVHACFLRHRDLCKGQGWATAHWTYK [S173C]	with no effect

Variants of: B5
Settings: with s5a1_human SRD5A1, P18405

Variant	effect of a mutation on the interaction
MASATAPAAAVPTLASPLEQLRHLAEELRLLLPRVRVGEAQETTEEFNREMFWRRLNEAAVTVSREATTLTIVFSQLPLPSPQETQKFCEQVHAAIKAFIAVYYLLPKDQGITLRKLVRGATLDIVDGMAQLMEVLSVTPTQSPENNDLISYNSVWVACQQMPQIPRDNKAAALLMLTKNVDFVKDAHEEMEQAVEECDPYSGLLNDTEENNSDNHNHEDDVLGFPSNQDLYWSEDDQELIIPCLALVRASKACLKKIRMLVAENGKKDQVAQLDDTVDISDEISPSVDDLALSIYPPMCHLTVRINSAKLVSVLKKALEITKASHVTPQPEDSWIPLLINAIDHCMNRIKELTQSELEL [I277T]	disrupting interaction strength
